Data reported in the supplement of paper PMC9732359.
± gives the uncertainty stated by the source.

Test: protein stability index of a GFP-peptide fusion (yeast GPS) (PSI 1-4); higher = more stable; sorted into four equal gates, so the index is relative within each strain
In short: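 The protein stability index combines read frequencies across sorting gates, each weighted by its gate number and then summed. To obtain those frequencies, a pooled yeast library of GFP fusions to tiled 17-residue yeast protein peptides, on a plasmid also expressing Cherry, was grown to mid-log phase in leucine-free medium. The cells were sorted into four equal gates by GFP/Cherry ratio before plasmid amplification by PCR and Illumina sequencing.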

| Sequence | protein stability index (doa10∆) | protein stability index (pdr5∆) | protein stability index (san1∆) | protein stability index (ubr1∆) |
| --- | --- | --- | --- | --- |
| KLQLGQLYESGNPVNDA [COR1] | 3.03 ± 0.076 | 2.98 ± 0.091 | 3.17 ± 0.065 | 3.01 ± 0.077 |
| AGENAPSIVFIDEIDAI [RPT2] | 2.03 ± 0.17 | 2.46 ± 0.21 | 1.74 ± 0.18 | 1.86 ± 0.14 |
| IRKGPAPLNLEIPAYEF [RIP1] | 2.76 ± 0.062 | 2.58 ± 0.083 | 2.67 ± 0.06 | 2.73 ± 0.062 |
| PSPPNVIITDGTLLRED [YDL088C/ASM4] | 2.71 ± 0.036 | 2.81 ± 0.041 | 2.97 ± 0.045 | 2.91 ± 0.034 |
| SVTEIPLKLSGEGPFTV [YMR129W/POM152] | 2.96 ± 0.072 | 3.23 ± 0.079 | 2.78 ± 0.078 | 2.81 ± 0.16 |
| KNLSLLAEEVVDNIVNK [SRP68] | 3.15 ± 0.092 | 2.9 ± 0.13 | 3.16 ± 0.066 | 3.01 ± 0.089 |
| EDVLVNQILMSVNFFVS [RPL1A] | 1.91 ± 0.044 | 2.4 ± 0.045 | 2.08 ± 0.068 | 2.23 ± 0.035 |
| KAKVDDLVLGKPLADLR [YLR335W/NUP2] | 3.23 ± 0.25 | 3.56 ± 0.21 | 3.39 ± 0.072 | 3.35 ± 0.09 |
| KVLCLAVAVGNVEMEED [RPL1A] | 1.58 ± 0.064 | 1.67 ± 0.053 | 1.33 ± 0.09 | 1.68 ± 0.044 |
| NRQAAASVVPSASSLVI [RPL12A] | 1.73 ± 0.03 | 2.17 ± 0.038 | 1.98 ± 0.049 | 1.83 ± 0.032 |
| EMNLHVPQSEETRAELS [RPO21] | 3.17 ± 0.2 | 3.31 ± 0.092 | 3.1 ± 0.1 | 3.15 ± 0.11 |
| IIFEIEKPLVVPVKLEE [RRP6] | 1.88 ± 0.079 | 2.28 ± 0.071 | 2.21 ± 0.12 | 2.14 ± 0.073 |
| FDNYQRNNFLAENSHTQ [PUP1] | 3.3 ± 0.081 | 3.26 ± 0.075 | 3.17 ± 0.058 | 3.19 ± 0.044 |
| GGESAYFFQLQIRSADE [RPC11] | 2.73 ± 0.06 | 2.88 ± 0.062 | 2.71 ± 0.06 | 3.22 ± 0.062 |
| KGYVFKISGGNDKQGFP [RPS6A] | 2.62 ± 0.068 | 2.89 ± 0.071 | 2.99 ± 0.052 | 3 ± 0.054 |
| AIDHLKAELEKQKSWVP [YIL149C/MLP2] | 3.05 ± 0.076 | 2.83 ± 0.073 | 2.98 ± 0.11 | 2.91 ± 0.051 |
| GRVTFIPLNRLSLDSDV [SMC3] | 2.65 ± 0.09 | 2.9 ± 0.053 | 2.85 ± 0.063 | 3.09 ± 0.058 |
| KNYTTETDNEMNGNGKP [SIR3] | 3.24 ± 0.078 | 3.37 ± 0.054 | 3.48 ± 0.043 | 3.22 ± 0.055 |
| LKYHDFLRKATAFNKTR [RPL16B] | 2.98 ± 0.047 | 3.06 ± 0.054 | 2.77 ± 0.053 | 3.08 ± 0.036 |
| VASADYESQTFSSKNEW [PRP8] | 2.83 ± 0.098 | 3.4 ± 0.19 | 2.85 ± 0.18 | 2.89 ± 0.13 |
| TLSPNVTDSSLLKLLTR [GRR1] | 2.89 ± 0.062 | 2.99 ± 0.07 | 2.83 ± 0.043 | 2.82 ± 0.042 |
| NNTEKNDVTNKNINIGK [SIR4] | 2.1 ± 0.055 | 2.21 ± 0.052 | 2.9 ± 0.043 | 2.37 ± 0.044 |
| KRKEELVSTLTTGISST [SMC2] | 2.3 ± 0.061 | 2.07 ± 0.052 | 2.61 ± 0.086 | 2.11 ± 0.045 |
| AFVPKKRKTNIIMFVGL [SRP54] | 2.03 ± 0.1 | 2.16 ± 0.088 | 1.86 ± 0.18 | 2.26 ± 0.051 |
| YTDRDQDEVNKGPAIDE [NNF1] | 2.12 ± 0.092 | 2.01 ± 0.085 | 1.89 ± 0.13 | 2.13 ± 0.14 |
| SSFSLTFFPRCIIAVSC [POP1] | 1.93 ± 0.029 | 1.86 ± 0.035 | 2.07 ± 0.054 | 2.03 ± 0.037 |
| YMDKAKQYDNRITKSNE [LRP1] | 3.08 ± 0.063 | 2.91 ± 0.056 | 2.97 ± 0.057 | 2.94 ± 0.074 |

| Sequence | protein stability index (doa10∆) | protein stability index (pdr5∆) | protein stability index (san1∆) | protein stability index (ubr1∆) |
| --- | --- | --- | --- | --- |
| GVNGYIWLRKTSQMDLA [RRP4] | 3.07 ± 0.077 | 2.74 ± 0.068 | 3.07 ± 0.097 | 2.9 ± 0.098 |
| EPLAFYLEESFTNLGII [RGR1] | 1.67 ± 0.063 | 2.18 ± 0.053 | 2.35 ± 0.071 | 2.57 ± 0.045 |
| AARDNKKTRIIPRHLQL [HTA1] | 3.04 ± 0.18 | 3.38 ± 0.11 | 3.37 ± 0.13 | 3.15 ± 0.19 |
| RVNNPNVSLIKIEGVAT [RPL33A] | 2.54 ± 0.077 | 2.62 ± 0.062 | 2.38 ± 0.077 | 2.49 ± 0.048 |
| PPPPQQSQPIANQSATS [SNF5] | 2.96 ± 0.057 | 3.15 ± 0.049 | 2.92 ± 0.043 | 3.05 ± 0.041 |
| NDLEVGVATKDKFFTLS [SCL1] | 3.18 ± 0.084 | 3.33 ± 0.067 | 3.08 ± 0.072 | 2.89 ± 0.12 |
| TPSTETAASVFKELCYE [PRE3] | 1.92 ± 0.048 | 2.1 ± 0.052 | 2.29 ± 0.062 | 1.84 ± 0.038 |
| NIDSSAQFTFGKAATAK [YOR098C/NUP1] | 3.12 ± 0.099 | 3.07 ± 0.14 | 3.22 ± 0.13 | 3.1 ± 0.072 |
| LDSNFNLQREIDQAHVS [RPN14] | 2.49 ± 0.045 | 2.75 ± 0.061 | 2.56 ± 0.059 | 2.65 ± 0.054 |
| INSAPDFTQEDELRKQE [ISW2] | 3.24 ± 0.084 | 3.52 ± 0.068 | 3.4 ± 0.062 | 3.46 ± 0.057 |
| MLSILEIFKKGYIKNNK [POP6] | 2.63 ± 0.11 | 2.84 ± 0.091 | 3 ± 0.097 | 3.08 ± 0.1 |
| GTPLLEVRGQVPVIESA [SNU114] | 1.62 ± 0.046 | 1.88 ± 0.052 | 2.06 ± 0.093 | 1.95 ± 0.048 |
| LWSGKQILSVAIPNGIH [RPO21] | 1.57 ± 0.066 | 1.59 ± 0.051 | 1.37 ± 0.088 | 1.71 ± 0.087 |
| KIIEDLRQKHEFLEDFD [SMC2] | 2.96 ± 0.097 | 2.54 ± 0.077 | 2.6 ± 0.087 | 2.94 ± 0.17 |
| ANKTNLIESLNTIRQNV [YML103C/NUP188] | 1.57 ± 0.053 | 1.83 ± 0.053 | 1.73 ± 0.12 | 1.77 ± 0.063 |
| PGGQAALRALARSGLRI [RPS14A] | 2.15 ± 0.032 | 2.35 ± 0.029 | 2.21 ± 0.04 | 1.92 ± 0.022 |
| KLFVSKEHAPYTDELEE [FAS2] | – | 1.61 ± 0.12 | 1.56 ± 0.28 | 1.83 ± 0.15 |
| LERARDVNIVNRRLVYS [YCG1] | 2.44 ± 0.27 | – | 1.72 ± 0.29 | 1.66 ± 0.13 |
| EDFAPLLAEEEELILPN [PRP8] | 3.14 ± 0.17 | 3.38 ± 0.15 | 2.93 ± 0.066 | 2.78 ± 0.1 |
| CEIHPSMILGVAASIIP [RPB2] | 1.35 ± 0.11 | 1.42 ± 0.1 | 1.14 ± 0.15 | 1.35 ± 0.16 |
| YQTKKFYDYIKERSIVV [REC8] | 2.49 ± 0.058 | 2.81 ± 0.054 | 2.14 ± 0.058 | 2.72 ± 0.047 |
| QFKKLTHAQRTGLSQIP [PRP8] | 2.05 ± 0.11 | 2.46 ± 0.1 | 2.12 ± 0.14 | 2.53 ± 0.12 |
| ALVYSYIEASGREGIWS [RPC34] | 3.13 ± 0.24 | 2.87 ± 0.24 | 2.28 ± 0.17 | 2.52 ± 0.11 |
| ALTDFERFQVMVLRKQK [RPL14A] | 1.96 ± 0.11 | 1.97 ± 0.11 | 1.62 ± 0.12 | 2.16 ± 0.065 |
| SKKSTITVRYWLNGKMD [RGR1] | – | – | 2.28 ± 0.2 | – |
| LKTKLLEEVEGSCTGKF [RPB7] | 3.53 ± 0.29 | 2.84 ± 0.22 | – | – |
| VLSPDSNIMSDSKKIKV [GAL11] | 2.03 ± 0.13 | 2.42 ± 0.095 | 2.44 ± 0.12 | 2.21 ± 0.12 |
